The values that follow come from patent publication US20240182540A1.

This assay deals with EGFRvIII variant of EGFR, expressed on CT2AvIII cells (UniProt P00533). In words: cell-based or functional assay.

For the substance “third-generation EGFRvIII-targeting CAR (anti-EGFRvIII scFv clone 139 fused to CD8 hinge and TM, CD28, 4-1BB and CD3zeta), on transduced mouse T cells”, the percent survival of tumor cells, in vitro cytotoxicity against a 70:30 mixture of CT2A:CT2AvIII, 24 h co-culture turned out to be 75%.
